Reference: article PMC2954335

Target: ecCTLA-4 (Escherichia coli-expressed monomeric form of CTLA-4, extracellular region vl-Ig 1-124, cysteine 122 mutated to serine) (UniProt P16410)
Experiment: SEC; monomeric ecCTLA-4 concentrated to 10 mg/ml, incubated 24 h at room temperature, then analytical size-exclusion chromatography with calibration curve; monomer to strand-swapped dimer and larger species

With “ecCTLA-4 (Escherichia coli-expressed monomeric form of CTLA-4, extracellular region vl-Ig 1-124, cysteine 122 mutated to serine) (from UniProt P16410 36-159) (domain or fragment)” the stoichiometry N was over 2.
